Source: patent publication US20170037111A1, “Novel peptides and combination of peptides for use in immunotherapy against ovarian cancer and other cancers” (immatics biotechnologies GmbH, priority 2015, published 2017)

Molecular target: HLA-A*02:01 (Homo sapiens, UniProt P04439, D140Y/D185E/D98H/E176V/E277Q/G131W/G231S/I119V/I121R/I166T/I218V/L300P/L318F/N151K/N90K/P208A/P217A/Q86G/Q94H/R138H/R169H/T345S)
Experiment: MHC binding assay (UV-ligand exchange, β2m ELISA, peptide exchange yield)
Conditions: MHC class I binding score; binding to HLA-A*02:01 ranged by peptide exchange yield (UV-ligand exchange, β2m ELISA)
How it was run: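 Binding is expressed as peptide exchange yield: stabilized MHC complexes were quantified by β2m ELISA, with a 450 nm TMB read-out on streptavidin-coated plates. Complexes came from UV-ligand exchange, where UV irradiation cleaves a photolabile peptide so the candidate peptide can load.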

Substance | Peptide exchange
261 (YVLEFLEEI; listed as Homo sapiens) [compound 261] | ″++″ (≧20% = ++)
262 (LLWGDLIWL; listed as Homo sapiens) [compound 262] | ″+++″ (≧50% = +++)
263 (LLVSNLDFGV; listed as Homo sapiens) [compound 263] | ″+++″ (≧50% = +++)
265 (LLFGGTKTV; listed as Homo sapiens) [compound 265] | ″++″ (≧20% = ++)
266 (KITDTLIHL; listed as Homo sapiens) [compound 266] | ″+++″ (≧50% = +++)
269 (RVLEVGALQAV; listed as Homo sapiens) [compound 269] | ″++″ (≧20% = ++)
271 (LVYPLELYPA; listed as Homo sapiens) [compound 271] | ″+++″ (≧50% = +++)
276 (ALFTFSPLTV; listed as Homo sapiens) [compound 276] | ″+++″ (≧50% = +++)
279 (ALWGGTQPLL; listed as Homo sapiens) [compound 279] | ″++″ (≧20% = ++)
280 (VLPDPEVLEAV; listed as Homo sapiens) [compound 280] | ″+++″ (≧50% = +++)
281 (ILRESTEEL; listed as Homo sapiens) [compound 281] | ″+++″ (≧50% = +++)
282 (LLADVVPTT; listed as Homo sapiens) [compound 282] | ″+++″ (≧50% = +++)
285 (QLLHVGVTV; listed as Homo sapiens) [compound 285] | ″+++″ (≧50% = +++)
286 (YLFPGIPEL; listed as Homo sapiens) [compound 286] | ″+++″ (≧50% = +++)
287 (FLNEFFLNV; listed as Homo sapiens) [compound 287] | ″+++″ (≧50% = +++)
300 (ALLGQTFSL; listed as Homo sapiens) [compound 300] | ″+++″ (≧50% = +++)
301 (FLVEDLVDSL; listed as Homo sapiens) [compound 301] | ″+++″ (≧50% = +++)

Substance | Peptide exchange
302 (ALLQEGEVYSA; listed as Homo sapiens) [compound 302] | ″+++″ (≧50% = +++)
305 (SIANFSEFYV; listed as Homo sapiens) [compound 305] | ″++++″ (≧75% = ++++)
307 (ALPVSLPQI; listed as Homo sapiens) [compound 307] | ″+++″ (≧50% = +++)
310 (FLVDTPLARA; listed as Homo sapiens) [compound 310] | ″++++″ (≧75% = ++++)
315 (YLQDVVEQA; listed as Homo sapiens) [compound 315] | ″+++″ (≧50% = +++)
316 (ILLERLWYV; listed as Homo sapiens) [compound 316] | ″+++″ (≧50% = +++)
318 (GLINTGVLSV; listed as Homo sapiens) [compound 318] | ″++″ (≧20% = ++)
320 (KMFEFVEPLL; listed as Homo sapiens) [compound 320] | ″++++″ (≧75% = ++++)
330 (QLALKVEGV; listed as Homo sapiens) [compound 330] | ″+++″ (≧50% = +++)
333 (FLPDANSSV; listed as Homo sapiens) [compound 333] | ″++″ (≧20% = ++)
334 (TLTKVLVAL; listed as Homo sapiens) [compound 334] | ″+++″ (≧50% = +++)
336 (ILLTAIVQV; listed as Homo sapiens) [compound 336] | ″+++″ (≧50% = +++)
337 (HLLSELEAAPYL; listed as Homo sapiens) [compound 337] | ″++++″ (≧75% = ++++)
339 (GLWEIENNPTVKA; listed as Homo sapiens) [compound 339] | ″++++″ (≧75% = ++++)
341 (SQIALNEKLVNL; listed as Homo sapiens) [compound 341] | ″+++″ (≧50% = +++)
343 (SLLEVNEESTV; listed as Homo sapiens) [compound 343] | ″+++″ (≧50% = +++)
344 (YLQDQHLLLTV; listed as Homo sapiens) [compound 344] | ″+++″ (≧50% = +++)

Next, values leading:

Peptide exchange | Substance
″+++″ (≧50% = +++) | 256 (FLPPEHTIVYI; listed as Homo sapiens) [compound 256]
″+++″ (≧50% = +++) | 257 (SIFSAFLSV; listed as Homo sapiens) [compound 257]
″++″ (≧20% = ++) | 258 (ELAERVPAI; listed as Homo sapiens) [compound 258]
″+++″ (≧50% = +++) | 264 (SLQEQLHSV; listed as Homo sapiens) [compound 264]
″+++″ (≧50% = +++) | 267 (ALQDFLLSV; listed as Homo sapiens) [compound 267]
″++″ (≧20% = ++) | 270 (LLLDEEGTFSL; listed as Homo sapiens) [compound 270]
″+++″ (≧50% = +++) | 272 (ALGNTVPAV; listed as Homo sapiens) [compound 272]
″++″ (≧20% = ++) | 273 (NLFQSVREV; listed as Homo sapiens) [compound 273]
″++″ (≧20% = ++) | 274 (SLLFSLFEA; listed as Homo sapiens) [compound 274]
″++″ (≧20% = ++) | 275 (YLVYILNEL; listed as Homo sapiens) [compound 275]
″++″ (≧20% = ++) | 277 (LLPPLESLATV; listed as Homo sapiens) [compound 277]
″++″ (≧20% = ++) | 278 (QLLDVVLTI; listed as Homo sapiens) [compound 278]
″+++″ (≧50% = +++) | 284 (ILLSQTTGV; listed as Homo sapiens) [compound 284]
″+++″ (≧50% = +++) | 288 (NLINEINGV; listed as Homo sapiens) [compound 288]
″++++″ (≧75% = ++++) | 289 (VLLEIEDLQV; listed as Homo sapiens) [compound 289]
″+++″ (≧50% = +++) | 295 (VLDRESPNV; listed as Homo sapiens) [compound 295]
″+++″ (≧50% = +++) | 296 (FMEGAIIYV; listed as Homo sapiens) [compound 296]
″+++″ (≧50% = +++) | 297 (VLADIELAQA; listed as Homo sapiens) [compound 297]
″+++″ (≧50% = +++) | 298 (VMITKLVEV; listed as Homo sapiens) [compound 298]
″+++″ (≧50% = +++) | 299 (YLLETSGNL; listed as Homo sapiens) [compound 299]
″++++″ (≧75% = ++++) | 303 (AILPQLFMV; listed as Homo sapiens) [compound 303]
″+++″ (≧50% = +++) | 304 (MTLGQIYYL; listed as Homo sapiens) [compound 304]

Peptide exchange | Substance
″+++″ (≧50% = +++) | 306 (ALVNVQIPL; listed as Homo sapiens) [compound 306]
″+++″ (≧50% = +++) | 308 (SQYSGQLHEV; listed as Homo sapiens) [compound 308]
″+++″ (≧50% = +++) | 309 (GLFDGVPTTA; listed as Homo sapiens) [compound 309]
″+++″ (≧50% = +++) | 311 (RLYTGMHTV; listed as Homo sapiens) [compound 311]
″+++″ (≧50% = +++) | 312 (IISDLTIAL; listed as Homo sapiens) [compound 312]
″+++″ (≧50% = +++) | 313 (VLFDDELLMV; listed as Homo sapiens) [compound 313]
″+++″ (≧50% = +++) | 314 (ALIAEGIALV; listed as Homo sapiens) [compound 314]
″+++″ (≧50% = +++) | 317 (SLAALVVHV; listed as Homo sapiens) [compound 317]
″++++″ (≧75% = ++++) | 321 (GLFEDVTQPGILL; listed as Homo sapiens) [compound 321]
″+++″ (≧50% = +++) | 322 (TLMTSLPAL; listed as Homo sapiens) [compound 322]
″+++″ (≧50% = +++) | 324 (FLYDEIEAEV; listed as Homo sapiens) [compound 324]
″+++″ (≧50% = +++) | 325 (FIMPATVADATAV; listed as Homo sapiens) [compound 325]
″+++″ (≧50% = +++) | 326 (FLPEALDFV; listed as Homo sapiens) [compound 326]
″+++″ (≧50% = +++) | 327 (GLAPFTEGISFV; listed as Homo sapiens) [compound 327]
″+++″ (≧50% = +++) | 328 (ALNDQVFEI; listed as Homo sapiens) [compound 328]
″++++″ (≧75% = ++++) | 329 (FLVTLNNVEV; listed as Homo sapiens) [compound 329]
″+++″ (≧50% = +++) | 331 (KVDTVWVNV; listed as Homo sapiens) [compound 331]
″+++″ (≧50% = +++) | 332 (YLISELEAA; listed as Homo sapiens) [compound 332]
″+++″ (≧50% = +++) | 335 (YSLSSVVTV; listed as Homo sapiens) [compound 335]
″++++″ (≧75% = ++++) | 340 (ALLSMTFPL; listed as Homo sapiens) [compound 340]
″+++″ (≧50% = +++) | 342 (HIYDKVMTV; listed as Homo sapiens) [compound 342]
